Where two headings read alike, the source gives them in different places.

The record followed here is paper PMC3985873.

Assay in all cases: smFRET
Data set [1] has as its target T1, MutS (Thermus aquaticus, UniProt Q56215 1-811).
T1 sequence: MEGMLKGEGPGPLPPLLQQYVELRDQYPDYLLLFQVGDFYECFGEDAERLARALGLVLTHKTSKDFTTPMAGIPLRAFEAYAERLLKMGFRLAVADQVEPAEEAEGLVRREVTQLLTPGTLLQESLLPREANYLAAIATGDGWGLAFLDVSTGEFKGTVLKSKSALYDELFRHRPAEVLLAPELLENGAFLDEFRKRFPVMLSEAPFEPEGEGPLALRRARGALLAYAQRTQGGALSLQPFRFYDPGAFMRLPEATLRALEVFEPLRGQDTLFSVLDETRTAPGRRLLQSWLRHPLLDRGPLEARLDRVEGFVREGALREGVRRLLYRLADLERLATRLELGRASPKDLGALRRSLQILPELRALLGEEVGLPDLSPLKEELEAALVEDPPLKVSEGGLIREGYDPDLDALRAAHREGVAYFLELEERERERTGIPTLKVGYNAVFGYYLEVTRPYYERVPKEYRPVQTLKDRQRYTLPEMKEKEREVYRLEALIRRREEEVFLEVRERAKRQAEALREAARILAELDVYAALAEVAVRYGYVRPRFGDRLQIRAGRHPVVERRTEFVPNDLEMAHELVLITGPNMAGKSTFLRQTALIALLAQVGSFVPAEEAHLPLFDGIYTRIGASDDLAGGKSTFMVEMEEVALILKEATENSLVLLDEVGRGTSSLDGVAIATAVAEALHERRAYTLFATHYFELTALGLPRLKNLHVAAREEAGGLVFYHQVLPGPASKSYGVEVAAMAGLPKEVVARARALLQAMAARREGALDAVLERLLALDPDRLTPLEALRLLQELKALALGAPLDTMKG

Data set [2] deals with T2, MutS-E41A (Thermus aquaticus, UniProt Q56215 1-811, E41A).
T2 sequence: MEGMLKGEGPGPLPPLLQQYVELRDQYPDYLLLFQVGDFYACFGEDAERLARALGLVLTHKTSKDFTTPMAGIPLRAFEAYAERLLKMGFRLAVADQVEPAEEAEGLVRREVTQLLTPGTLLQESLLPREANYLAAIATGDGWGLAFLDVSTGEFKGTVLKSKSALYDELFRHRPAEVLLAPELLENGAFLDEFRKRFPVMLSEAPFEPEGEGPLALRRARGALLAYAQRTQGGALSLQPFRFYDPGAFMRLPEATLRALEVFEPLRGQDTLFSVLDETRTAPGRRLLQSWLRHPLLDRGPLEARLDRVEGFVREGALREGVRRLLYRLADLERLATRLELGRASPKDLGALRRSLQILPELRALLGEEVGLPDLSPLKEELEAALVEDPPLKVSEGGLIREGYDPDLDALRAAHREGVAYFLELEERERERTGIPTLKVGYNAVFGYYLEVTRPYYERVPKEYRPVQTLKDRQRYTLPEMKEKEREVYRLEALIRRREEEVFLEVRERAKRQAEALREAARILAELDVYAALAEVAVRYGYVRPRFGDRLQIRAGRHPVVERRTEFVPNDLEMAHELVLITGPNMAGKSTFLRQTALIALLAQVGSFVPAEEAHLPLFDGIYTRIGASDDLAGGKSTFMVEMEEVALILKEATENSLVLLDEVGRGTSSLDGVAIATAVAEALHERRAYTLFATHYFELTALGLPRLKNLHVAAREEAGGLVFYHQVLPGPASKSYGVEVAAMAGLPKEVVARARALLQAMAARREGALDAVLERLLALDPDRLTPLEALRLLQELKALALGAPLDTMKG

For data set [3], the target named is T2, MutS-E41A. The source holds these as a separate data set.
For data set [4], the target named is T1, MutS. This is another data set of the same source.

B1: GT mismatch DNA (A1/B1/C1-GT) (dsDNA)
DNA 1: TGTCGGGGCTGGCTTAAGGTGTGAAATACCTCATCTCGAGCGTGCCGATA
DNA 2: TATCGGCACGTTCGAGATG
DNA 3: AGGTATTTCACACCTTAAGCCAGCCCCGACA
For the molecule B1, the binding result with MutS [1] and in the data set with MutS-E41A [2] was “binds” in each case.

B2: T-bulge DNA (A1/B1/C2-T-bulge) (dsDNA)
DNA 1: TGTCGGGGCTGGCTTAAGGTGTGAAATACCTCATCTCGAGCGTGCCGATA
DNA 2: TATCGGCACGTCTCGAGATG
DNA 3: AGGTATTTCACACCTTAAGCCAGCCCCGACA
Turning to B2, the binding result with MutS-E41A [3] and in the data set with MutS [4] was “binds” in each case.
